Measurements as given in patent publication US20250319190A1, “APOE LIPOPROTEIN SYSTEMS” (Kisbee Therapeutics, Inc., priority 2022, published 2025).
Where a chain is given by its changes, count along the chain named.

Tests used:
[1] = DMPC liposome clearance by lipid-free apolipoproteins (A325); type: biochemical; conditions: lipid-free apolipoprotein, protein:lipid 1:75, A325 over 90 minutes
Experimental: To assess the ability of lipid-free apolipoproteins to remodel DMPC liposomes, aliquots of purified polypeptide were allowed to thaw at 2-8° C. Aqueous 0.5 M tris(2-carboxyethyl)phosphine (TCEP) solution was then added to the polypeptide solution (1.5 μL per 200 μg polypeptide) to reduce any disulfide bonds that formed during storage. After incubation for >30 minutes at 2-8° C., the mixture was buffer exchanged into PBS (2 mM KH2PO4, 10 mM Na2HPO4, 140 mM NaCl, 3 mM KCl, pH 7.4) using a spin desalting column (ThermoFisher) following the manufacturer's instructions. After buffer exchange, the concentration of the polypeptide was determined by measuring the sample's absorbance at 280 nm (A280). In parallel, a mixture of DMPC (1,2-dimyristoyl-sn-glycero-3-phosphocholine) in detergent-free lipid buffer (20 mM Tris HCl, 100 mM NaCl, pH 7.4) was prepared from neat DMPC powder and adjusted to about 10 mM.
The polypeptide and DMPC solutions were combined in technical duplicate or triplicate in a UV-transparent 96-well plate (Corning) such that the molar ratio of protein:lipid was 1:75. The absorbance of the wells at 325 nm was measured every minute for 90 minutes.
Polypeptides PP124 (SEQ ID NO: 876), PP125 (SEQ ID NO: 877), PP126 (SEQ ID NO: 878), PP127 (SEQ ID NO: 879), PP128 (SEQ ID NO: 880), and PP129 (SEQ ID NO: 881) were expressed, harvested, and purified using the methods described herein (see, e.g., Example 1). The ability of these novel apolipoprotein variants to interact with and remodel DMPC liposomes was assessed to serve as a simplified proxy of the disc assembly process. The rate at which apolipoproteins achieve such remodeling is related to the facility with which they form the lipoprotein systems described in the present invention.

NPC1 models = conditions: cited from earlier work
NPC1 = conditions: administered directly to the CNS; cited from earlier work
[2] = system: cellular model for Huntington's disease; conditions: in vitro treatment; cited from earlier work
[3] = system: mouse model of tauopathy with Parkinsonism; conditions: trehalose consumption; cited from earlier work
[4] = system: experimental models of stroke, global brain ischemia, prion diseases, AD, PD, HD, ALS; conditions: intracerebral administration; cited from earlier work
[5] = molecular target: human low-density lipoprotein receptor (LDLR) protein (human, UniProt P01130 22-788, limits assumed); test: SPR (Biacore 4000), human LDLR captured on a Protein A chip, lipoprotein as analyte, 1:1 model fit
Experimental: (§1) A surface plasmon resonance (SPR) method was developed to assess the binding response between the lipoprotein samples and the low-density lipoprotein receptor (LDLR). This interaction is relevant to the discs because the LDLR/APOE pathway plays a pivotal role in cholesterol homeostasis and lipid metabolism. Experiments were performed on a Biacore 4000 with human LDLR protein captured on a Protein A chip. For the binding studies, lipoprotein samples were diluted and tested in a 3-fold dilution series. Samples were injected for 2-3 minutes at 30 μL/min and the dissociation phase was monitored for 5-10 minutes. Response data were processed by subtracting the data from a reference surface (i.e., without receptor captured) and a buffer injection. The processed data were globally fit to a 1:1 interaction model to extract estimates of the binding constants.
Target sequence in this assay (P01130 22-788 limits assumed): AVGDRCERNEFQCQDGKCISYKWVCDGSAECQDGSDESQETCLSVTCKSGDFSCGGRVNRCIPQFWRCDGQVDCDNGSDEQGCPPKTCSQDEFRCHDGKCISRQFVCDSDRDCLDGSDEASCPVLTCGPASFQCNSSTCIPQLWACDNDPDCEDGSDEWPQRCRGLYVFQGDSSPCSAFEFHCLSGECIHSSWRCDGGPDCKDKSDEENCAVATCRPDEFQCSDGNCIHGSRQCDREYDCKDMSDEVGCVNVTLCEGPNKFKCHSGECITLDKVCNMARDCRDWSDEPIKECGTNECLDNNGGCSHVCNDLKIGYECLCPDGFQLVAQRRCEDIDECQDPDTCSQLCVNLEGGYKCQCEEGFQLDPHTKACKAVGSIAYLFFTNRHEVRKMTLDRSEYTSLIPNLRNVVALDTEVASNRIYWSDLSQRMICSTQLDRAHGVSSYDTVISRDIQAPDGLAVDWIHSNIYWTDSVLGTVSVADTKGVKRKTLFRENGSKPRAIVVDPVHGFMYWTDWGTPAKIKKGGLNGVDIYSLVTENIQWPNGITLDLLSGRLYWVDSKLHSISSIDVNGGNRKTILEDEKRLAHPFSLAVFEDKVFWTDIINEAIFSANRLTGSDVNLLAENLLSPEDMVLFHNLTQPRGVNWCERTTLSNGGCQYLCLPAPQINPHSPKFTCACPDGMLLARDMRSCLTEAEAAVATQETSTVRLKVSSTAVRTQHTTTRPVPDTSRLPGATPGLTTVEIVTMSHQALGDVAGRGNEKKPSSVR

[6] = molecular target: T1, human low-density lipoprotein receptor (LDLR) protein (human, UniProt P01130 22-788, limits assumed); test: SPR (Biacore 4000), human LDLR captured on Protein A chip
T1 construct: The receptor was captured on a Protein A chip in the SPR assay
Experimental: as §1
T1 sequence (P01130 22-788 limits assumed): as above

PP2: natural human APOE isoform APOE 3; SEQ ID NO: 268, 267 in b698
Rate of DMPC clearance Ka [1]: 0.0145 s⁻¹

PP1: natural human APOE isoform APOE2; SEQ ID NO: 267, 268 in b698
Rate of DMPC clearance Ka [1]: 0.0032 s⁻¹

2-hydroxypropyl-β-cyclodextrins [HPβCD]
crossing of the blood-brain barrier (NPC1 models; mouse, in vivo): does not cross the blood-brain barrier in significant amounts
CNS manifestations (NPC1 models; subcutaneously or intraperitoneally, very high doses): can moderately impact CNS manifestations
efficacy (NPC1): far greater HPβCD efficacy at much lower doses

OC[C@H]1O[C@H](O[C@H]2O[C@H](CO)[C@@H](O)[C@H](O)[C@H]2O)[C@H](O)[C@@H](O)[C@@H]1O [trehalose]
polyglutamine aggregates and cell survival [2]: decreased polyglutamine aggregates and/or improved cell survival
anxiety-related behavior [3]: Reduced anxiety-related behavior
motor function [3]: improved motor function
tau pathology [3]: decreased tau pathology

B1: BDNF: brain-derived neurotrophic factor, a neurotherapeutic growth factor (protein, UniProt P23560 19-247, looked up)
Neurotrophic factor BDNF …: APMKEANIRGQGGLAYPGVRTHGTLESVNGPKAGSRGLTSLADTFEHVIEELLDEDQKVRPNEENNKDADLYTSRVMLSSQVPLEPPLLFLLEEYKNYLDAANMSMRVRRHSDPARRGELSVCDSISEWVTAADKKTAVDMSGGTVTVLEKVPVSKGQLKQYFYETKCNPMGYTKEGCRGIDKRHWNSQCRTTQSYVRALTMDSKKRIGWRFIRIDTSCVCTLTIKRGR
neuroprotection [4]: neuroprotective

B2: LPS3: lipoprotein system of PP11 and POPC, apolipoprotein:lipid 1:90 (other)
chain: KVEQAVETEPEPELRQQTEWQSGQRWELALGRFWDYLRWVQTLSEQVQEELLSSQVTQELRALMDETMKELKAYKSELEEQLTPVAEETRARLSKELQAAQARLGADMEDVCGRLVQYRGEVQAMLGQSTEELRVRLASHLRKLRKRLLRDADDLQKRLAVYQAGAREGAERGLSAIRERLGDRLDEVKEQVAAKLEEQAQQIRLQAEAFQARLKPLVEDMQRQWAGLVEKVQAAVGTSAAPVPSDNH
notes: Discoidal lipoprotein particle with POPC; Engineered truncation variant of APOE3; also called PP11/POPC
Kd [5]: ~0.125 nM

B3: PP129: novel truncated apolipoprotein variant SEQ ID NO: 881 (protein)
chain: B2 chain with R136S, V192E, L228Q
Rate of DMPC clearance Ka [1]: 0.0068 s⁻¹

B4: LPS3 lipoprotein system (PP11 with POPC, polypeptide:lipid 1:90) (other)
chain: B2 chain
notes: Discoidal lipoprotein particle with POPC at 1:90 mol/mol; also called PP11/POPC
fold difference in KD compared to POPC lipoproteins with PP2 or PP28 [6]: ≤ 5 fold

B5: PP127: novel truncated apolipoprotein variant SEQ ID NO: 879 (protein)
chain: B2 chain with V192E
Rate of DMPC clearance Ka [1]: 0.0058 s⁻¹

B6: PP126: novel truncated apolipoprotein variant SEQ ID NO: 878 (protein)
chain: B2 chain
Rate of DMPC clearance Ka [1]: 0.0383 s⁻¹

B7: PP128: novel truncated apolipoprotein variant SEQ ID NO: 880 (protein)
chain: B2 chain with R136S, V192E
Rate of DMPC clearance Ka [1]: 0.0149 s⁻¹

B8: LPS1: lipoprotein system of PP9 and POPC, apolipoprotein:lipid 1:105 (other)
chain: KVEQAVETEPEPELRQQTEWQSGQRWELALGRFWDYLRWVQTLSEQVQEELLSSQVTQELRALMDETMKELKAYKSELEEQLTPVAEETRARLSKELQAAQARLGADMEDVCGRLVQYRGEVQAMLGQSTEELRVRLASHLRKLRKRLLRDADDLQKRLAVYQAGAREGAERGLSAIRERLGPLVEQGRVRAATVGSLAGQPLQERAQAWGERLRARMEEMGSRTRDRLDEVKEQVAAKLEEQAQQIRLQAEAFQARLKPLVEDMQRQWAGLVEKVQAAVGTSAAPVPSDNH
notes: Discoidal lipoprotein particle with POPC; Engineered truncation variant of APOE3; also called PP9/POPC
Kd [5]: ~0.33 nM

B9: PP124: novel truncated apolipoprotein variant SEQ ID NO: 876 (protein)
chain: B8 chain with V236E
Rate of DMPC clearance Ka [1]: 0.0221 s⁻¹

B10: PP125: novel truncated apolipoprotein variant SEQ ID NO: 877 (protein)
chain: B8 chain with R136S, V236E
Rate of DMPC clearance Ka [1]: 0.0247 s⁻¹

B11: LPS1 lipoprotein system (PP9 with POPC, polypeptide:lipid 1:105) (other)
chain: B8 chain
notes: Discoidal lipoprotein particle with POPC at 1:105 mol/mol; also called PP9/POPC
fold difference in KD compared to POPC lipoproteins with PP2 or PP28 [6]: ≤ 5 fold

B12: LPS2: lipoprotein system of PP10 and POPC, apolipoprotein:lipid 1:100 (other)
chain: KVEQAVETEPEPELRQQTEWQSGQRWELALGRFWDYLRWVQTLSEQVQEELLSSQVTQELRALMDETMKELKAYKSELEEQLTPVAEETRARLSKELQAAQARLGADMEDVCGRLVQYRGEVQAMLGQSTEELRVRLASHLRKLRKRLLRDADDLQKRLAVYQAGAREGAERGLSAIRERLGDRLDEVKEQVAEVRAKLEEQAQQIRLQAEAFQARLKSWFEPLVEDMQRQWAGLVEKVQAAVGTSAAPVPSDNH
notes: Discoidal lipoprotein particle with POPC; Engineered truncation variant of APOE3; also called PP10/POPC
Kd [5]: ~0.385 nM

B13: LPS2 lipoprotein system (PP10 with POPC, polypeptide:lipid 1:100) (other)
chain: B12 chain
notes: Discoidal lipoprotein particle with POPC at 1:100 mol/mol; also called PP10/POPC
fold difference in KD compared to POPC lipoproteins with PP2 or PP28 [6]: ≤ 5 fold
